Test results taken from article PMC3545106 (Structure (London, England : 1993), 2012).
Square brackets hold non-standard residues; d marks the D form. Ends that are not written are not given here. pT = C[C@@H](OP(=O)(O)O)[C@H](N)C(=O)O

T1: AF4 peptide phosphorylated at T766
T1 chain: LMVKI[pT]LDLLSRIP

T2: AF9 ANC1 Homology Domain (AHD), residues 490-568 (UniProt P42568 490-568)
T2 sequence (looked up): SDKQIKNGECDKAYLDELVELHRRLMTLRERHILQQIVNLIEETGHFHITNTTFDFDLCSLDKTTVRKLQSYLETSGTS


Key:
[1] = molecular target: T1, AF4 peptide phosphorylated at T766; assay: fluorescence polarisation
[2] = molecular target: BCoR peptide of the fluorescence anisotropy experiments; assay: fluorescence polarisation
[3] = molecular target: AF4 peptide of the fluorescence anisotropy experiments; assay: fluorescence polarisation
[4] = molecular target: T2, AF9 ANC1 Homology Domain (AHD), …; assay: NMR titration

Binder	fold reduction of affinity against the unphosphorylated AF4 peptide [1] [fold]	Kd [2] [nM]	Kd [3] [nM]	binding result [4]
MBP-AF9 (mouse AF9 residues 475-568 fused to the Maltose Binding Protein) (domain or fragment, UniProt A2AM29 475-568, looked up) NNNQILEVKSPIKQSKSDKQIKNGECDKAYLDELVELHRRLMTLRERHILQQIVNLIEETGHFHITNTTFDFDLCSLDKTTVRKLQSYLETSGT	~30	32	0.17	
LMVKITLDLLSRIP (peptide, UniProt P51825 761-774, looked up) [AF4 peptide, residues 761-774 (AF9 interaction motif of AF4)]				binds
